The values below are quoted from earlier work in PMC6787260.

pKd: −log10 of the molar value. Where two headings read alike, the source gives them in different places.

Data set [1] deals with PDK1 (Homo sapiens) (UniProt O15530). The data set can be described thus: time resolved-FRET.
Data set [2] has the same target. Description: time resolved-FRET. This is another data set of the same source.

The term pKd denotes the negative decadic logarithm of the Kd, by convention in mol/L. Turning to PDK1 (from UniProt O15530), the pKd with PDK1 (Homo sapiens) [1] was 4.31; with PDK1 (Homo sapiens) [2], 4.96.
